According to PMC12510028, “A biophysical and molecular characterization of the interaction between the Alzheimer risk factor BIN1 and the neuronal scaffold protein p140Cap” (The Journal of Biological Chemistry, 2025):

Legend:
BIN1 SH3 domain = target: T1, BIN1 SH3 domain (Homo sapiens, UniProt O00499); assay: SPR equilibrium affinity of peptides for biotinylated BIN1-SH3 domain; type: binding; conditions: for Kd: SPR Biacore S200, Biotin CAPture chip, Avi-BIN1-SH3 immobilised as ligand, peptide as analyte, reference cell CTX-M-14 subtracted, 25 °C, PBS-P+, steady-state 1:1 fit, mean ± SD of three technical replicates, p140Cap peptides tested 0.6–75 μM; for binding to BIN1-SH3 in words: SPR, tested analyte concentrations 0.6–75 μM
T1 construct: His (N); made in house; host or cells: E. coli BL21 (DE3)
T1 sequence (O00499 520-593 limits assumed): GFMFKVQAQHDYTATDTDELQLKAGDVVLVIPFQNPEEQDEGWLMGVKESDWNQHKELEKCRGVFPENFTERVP
Protocol: We undertook a candidate approach to identify biologically relevant neuronal proteins that interact with BIN1’s SH3 domain (Fig. 1A). First, we referenced published KD calculations for several BIN1 SH3 domain ligands ([45]), setting a KD cut-off at <10 μM for our study. Then, we obtained a published index of potential protein interactors from a study that computationally predicted the top 100 peptide binding partners for each of 70 human SH3 domains, generated by SH3PepInt, an alignment-free, graph kernel-based tool ([46]). We curated the predicted BIN1 SH3-binding proteins using a set of criteria to ensure: 1) neuronal expression, 2) subcellular localization at the synapse, and 3) molecular functions relevant to neuronal BIN1 in neurotransmitter vesicle dynamics ([25]). We then utilized available protein structures in the Protein Data Bank or those predicted by AlphaFold to confirm the accessibility of each putative SH3-binding site within the full-length protein, prioritizing peptides known to adopt the left-handed polyproline-II helix. From these analyses, we nominated 10 proteins for an initial screening using 14-mer peptides in surface plasmon resonance (SPR) analysis (Fig. 1B). The purified Avi-tagged BIN1 SH3 domain was immobilized as the ligand on flow cell 2, while a nonbinding control protein was immobilized on flow cell 1 (Fig. S1). Subsequently, each peptide was injected in solution over the sensor surface as the analyte (Fig. 1B). To correct for nonspecific binding, response units from flow cell 1 were subtracted from those of flow cell 2 to determine the KD.
The ^1033KPSKSPPPPPPRRS^1046 p140Cap peptide harbors three canonical PRMs: class I, ^1036KSPPPPP^1042; class IIa, ^1038PPPPPRR^1045; and class IIb, ^1037PPPPPPR^1044 (Fig. 2A). […] Thus, we used SPR in combination with alanine-scanning mutagenesis to determine which of the three class motifs on p140Cap mediates binding to BIN1’s SH3 domain. We synthesized 14-mer peptides with alanine substitutions at either the basic residues alone or in combination with the corresponding prolines for all three canonical PRM classes. We also synthesized 7-mer peptides containing the native core motif for cross-referencing (Fig. 2B). […] We reasoned that alanine substitution of residues not involved in BIN1-SH3 binding would produce similar, if not identical, KDs to the native 14-mer peptide. […] Thus, we would be able to identify the precise motif responsible for facilitating the BIN1–p140Cap interaction.
All experiments were conducted using the Biacore S200 (GE Healthcare), equipped with a series S Biotin Capture chip (Cytiva Life Sciences) at 25 °C in 1X PBS-P + [0.2 M phosphate buffer with 27 mM KCl, 1.37 M NaCl, and 0.5% surfactant P20 (Tween 20)] running buffer. The chip surface was first conditioned with three 1-min injections of regeneration solution (3:1 8 M guanidine-HCl: 1 M NaOH) immediately after docking. Biotin CAPture reagent (50 μg/ml in HBS-EP buffer [0.01 M Hepes (pH 7.4), 0.15 M NaCl, 3 mM EDTA, 0.005% surfactant P20]), 3.4 ml) was immobilized on the chip surface at a flow rate of 2 μl/min for 5 min prior to ligand immobilization. Affinity run assays were conducted by immobilizing 50 μg/ml Avi-BSH3 (12 kDa, >90% pure based on SDS-PAGE) diluted in 1X PBS-P+ running buffer at 5 ul/min for 60 s on a streptavidin-coated matrix on flow cell 2. Additionally, 50 μg/ml Avi-tagged nonbinding protein (CTX-M-14 β-lactamase, 30 kDa, >90% pure based on SDS-PAGE) diluted in 1X PBS-P+ running buffer was immobilized at 5 μl/min for 60 s on flow cell 1 to serve as a reference surface for subtraction of bulk refractive index background. To collect affinity data, the analytes were diluted in running buffer and injected over the two flow cells in serial dilution at a flow rate of 30 μl/min. The complexes were allowed to associate and dissociate for 30 s and 300 s, respectively. The surfaces were then regenerated with three 60 s injections of regeneration solution. […]

nsP3 (Chikungunya virus) = nsP3 (Chikungunya virus) (UniProt Q8JUX6); conditions: cited from earlier work
[1] = target: GST-tagged BIN1-SH3 domain MutK (K30R, rs138047593) (human); assay: pull-down; 25 μg GST or GST-BSH3 (WT or mutant) on glutathione-Sepharose with 0.5 mg of 1% Triton X-100 soluble mouse brain homogenate, 2 h at room temperature; washes with 50 mM KCl, 150 mM NaCl, 1.5% IGEPAL; immunoblot for p140Cap and total tau
[2] = target: Avi-tagged BIN1 SH3 domain (human) (UniProt O00499); assay: SPR; Biacore S200, Biotin CAPture chip; biotinylated Avi-BIN1-SH3 captured on flow cell 2, Avi-tagged CTX-M-14 β-lactamase on reference flow cell 1; peptides injected as analytes at 30 μl/min; 25 °C, 1X PBS-P+; steady-state analysis, 1:1 model
[3] = target: T2, Avi-tagged BIN1 SH3 domain (human, UniProt O00499 520-593, biotin within the 15 amino acid AviTag peptide (enzymatic, in E. coli)); assay: SPR
T2 chain: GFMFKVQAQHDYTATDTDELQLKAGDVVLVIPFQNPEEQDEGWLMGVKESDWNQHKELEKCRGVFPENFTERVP

[4] = target: T2, Avi-tagged BIN1 SH3 domain; assay: SPR
[5] = target: T3, Avi-tagged BIN1 SH3 domain (human, UniProt O00499 520-593, biotin within the 15 amino acid AviTag peptide (enzymatic, in E. coli)); assay: SPR; Biacore S200, Biotin CAPture chip; biotinylated Avi-BIN1-SH3 captured on flow cell 2, Avi-tagged CTX-M-14 β-lactamase on reference flow cell 1; peptides injected as analytes at 30 μl/min; 25 °C, 1X PBS-P+; steady-state analysis, 1:1 model; conditions: both partners purified
T3 construct: human BIN1 (bridging integrator 1), the C-terminal 81 amino acids that encompass the SH3 domain; 12 kDa by the methods; vector pAviBir, insert between BamHI and NotI; also called Avi-BSH3; AviBir-Bin1 SH3; source: E. coli BL21 (DE3), purified (HisTrap HP, Sephacryl S-200 gel filtration); not shown: AviTag, N-terminal, kept
T3 sequence (looked up): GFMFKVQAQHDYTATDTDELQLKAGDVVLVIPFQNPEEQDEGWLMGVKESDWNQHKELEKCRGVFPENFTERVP

Ac-KPSKSPPAPPARAS-NH2 [KPSKSPPAPPARAS]
Kd (BIN1 SH3 domain): > 75 µM

BIN1 SH3 (from UniProt O00499)
Kd (nsP3 (Chikungunya virus)): 0.024 µM

tau from mouse brain (from UniProt P10637-2 1-430) (natural protein)
fold less bound than to WT BIN1-SH3 [1]: 2 fold

Ac-GYGFRLPPSSPQKL-NH2 [p140Cap498-512]
Kd (BIN1 SH3 domain): > 75 µM

Ac-KSPPPPP-NH2 (N-terminus and C-terminus assumed) [KSPPPPP]
binding to BIN1-SH3 in words (BIN1 SH3 domain): no binding within the range of tested analyte concentrations

p140Cap 14-mer peptide 1033-1046 with alanine substitution of the class I lysine and its corresponding prolines (from UniProt Q9C0H9 1033-1046)
Kd [2]: 21 µM

p140Cap 14-mer peptide 1033-1046 with alanine substitution of the class I lysine (from UniProt Q9C0H9 1033-1046)
Kd [2]: 6.32 µM

Ac-ERSLVGFGPPVPAK-NH2 [p140Cap583-596]
Kd (BIN1 SH3 domain): > 75 µM

p140Cap 14-mer peptide 1033-1046 with alanine substitution of the C-terminal arginine (class IIa) (from UniProt Q9C0H9 1033-1046)
Kd [2]: 26.3 µM

Ac-KPSKSPAPPAPARS-NH2 [KPSKSPAPPAPARS]
Kd (BIN1 SH3 domain): > 75 µM

Ac-PPPPPPR-NH2 (N-terminus and C-terminus assumed) [PPPPPPR]
binding to BIN1-SH3 in words (BIN1 SH3 domain): outside the range of tested analyte concentrations

B1: p140Cap from mouse brain (natural protein)
chain: MQPWQCLRRFALAWWERTAEGRARSPREEVGPRDPGGRGEPDPERSSPPMLSADDAEYPREYRTLGGGGGGGSGGRRFSNVGLVHTSERRHTVIAAQSLEALSGLQKADADRKRDAFMDHLKSKYPQHALALRGQQDRMREQVGGWTVDPVCLLSSLCSHLHGDSTPSGAGQPAQQPNYWSFKTRSSRHTQGAQPGLADQAAKLSYASAESLETMSEAELPLGFSRMNRFRQSLPLSRSASQTKLRSPGVLFLQFGEETRRVHITHEVSSLDTLHALIAHMFPQKLTMGMLKSPNTAILIKDEARNVFYELEDVRDIQDRSIIKIYRKEPLYAAFPGSHLTNGDLRREMVYASRESSPTRRLNNLSPASHLASSSPPPGLPSGLPSGLPSGSPSRSRLSYAGGRPPSYAGSPVHHAAERLGGAPTGQGVSPSPSAILERRDVKPDEDLAGKAGGMVLVKGEGLYADPYGLLHEGRLSLAAAAETHSHTRARAACTSGVPCALSAPTPLPRCSPTWRTRCTRRALAALYGDGYGFRLPPSSPQKLADVSAPSGGPPPPHSPYSGPPSRGSPVRQSFRKDSGSSSVFAESPGGKARSTGSASTAGAPPSELFPGPGERSLVGFGPPVPAKDTETRERMEAMEKQIASLTGLVQSALLRGSEPETPSEKVEGSNGAATPSAPVCGSGSKSSGATPVSGPPPPSASSTPAGQPTAVSRLQMQLHLRGLQNSASDLRGQLQQLRNVQLQNQESVRALLKPTEADVSMRVSEAARRQEDPLQRQRTLVEEERLRYLNDEELITQQLNDLEKSVEKIQRDVAHNHRLMPGPELEEKALVLKQLGETLTELKAHFPGLQSKMRVVLRVEVEAVKFLKEEPQRLDGLLKRCRGVTDTLAQIRRQVDEGMWPPPNNLLNQSPKKVAAETDFSKGLDFEIPPPSPPLNLHELSGPAEGTPLTPKSTNPTKCLDASSKRNTDKAVSVEAAERDWEEKRAALTQYSAKDINRLLEETQAELLKAIPDLDCASKTHPGPAPTPDHKPPKAPHGQKAAPRTEPSGRRGSDELTVPRYRTEKPSKSPPPPPPRRSFPSSHGLTTTRTGEVVVTSKKDSVFIKKAESEELEVQKPQVKLRRAVSEVVRPASTPPIMASAIKDEDDEERIIAELESGGSSVPPMKVVTPGASRLKAAQGPAGSPDKGKHGKQRTEYMRIQAQQQATKPSKEVSGPNETSSPGSEKPSGSRTSIPVLTSFGARNSSISF
fold less bound than to WT BIN1-SH3 [1]: 2.6 fold

B2: p140Cap 14-mer peptide 583-596 (peptide)
peptide: Ac-ERSLVGFGPPVPAK-NH2
Kd [3]: > 75 µM

B3: p140Cap native class IIb 7-mer peptide (peptide)
peptide: PPPPPPR
Kd [4]: > 75 µM

B4: p140Cap 14-mer peptide 1033-1046 with alanine substitution of the N-terminal arginine (class IIb) (peptide)
chain: Ac-KPSKSPPPPPPARS-NH2
Kd [4]: > 75 µM

B5: p140Cap 14-mer peptide 498-512 (peptide)
peptide: Ac-GYGFRLPPSSPQKL-NH2
Kd [3]: > 75 µM

B6: p140Cap native class I 7-mer peptide (peptide)
peptide: KSPPPPP
Kd [4]: > 75 µM

B7: p140Cap 14-mer peptide 1033-1046 (peptide)
peptide: Ac-KPSKSPPPPPPRRS-NH2
notes: also called p140Cap_(1033-1046); native 14-mer peptide; source: synthetic peptide (GenScript, reversed-phase HPLC, ≥95% purity)
Kd [5]: 7.7 µM

B8: tau 6-mer peptide 158-163 (peptide)
peptide: PTPPTR
notes: tau, proline-rich domain, minimum consensus class II PRM; The methods tell acetylation and amination of the ends only for the 14-residue peptides; also called tau_(158-163); 6-mer tau peptide; source: synthetic peptide
Kd [5]: 288 µM

B9: tau 13-mer peptide 154-166 (peptide)
peptide: TPSLPTPPTREPK
notes: tau, proline-rich domain, class II PRM extended at both ends; The methods tell acetylation and amination of the ends only for the 14-residue peptides; also called tau_(154-166); 13-mer tau peptide; source: synthetic peptide
Kd [5]: 484 µM

B10: p140Cap native class IIa 7-mer peptide (peptide)
peptide: PPPPPRR
notes: human p140Cap, class IIa PRM of the C-terminal proline-rich domain; source: synthetic peptide
Kd [5]: 31.7 µM

B11: p140Cap 14-mer peptide 1033-1046 with alanine substitution of the class IIa arginine and its corresponding prolines (peptide)
chain: Ac-KPSKSPPAPPARAS-NH2
Kd [5]: > 75 µM
